The target of series [1] is CENP-C-CD R522A R522A (Homo sapiens) (UniProt Q03188). Briefly: EMSA. The settings on record: apparent Kd; 200 nM nucleosome; EMSA: 200 nM nucleosomes, 20 mM Tris-Cl pH 7.5, 1 mM EDTA, 1 mM DTT, on ice 1 h, 5% native PAGE; footprinting at room temperature, 5 min. (In general: In EMSA bound probe runs differently from free probe, usually more slowly.)
Series [2] addresses CENP-C-CD R521A R521A (Homo sapiens) (UniProt Q03188). Briefly: EMSA. The settings on record: apparent Kd; 200 nM nucleosome; EMSA: 200 nM nucleosomes, 20 mM Tris-Cl pH 7.5, 1 mM EDTA, 1 mM DTT, on ice 1 h, 5% native PAGE; footprinting at room temperature, 5 min.

This note sets out measurements from article PMC5472775.

“ATCAAATATCCACCTGCAGATTCTACCAAAAGTGTATTTGGAAACTGCTCCATCAAAAGGCATGTTCAGCTCTGTGAGTGAAACTCCATCATCACAAAGAATATTCTGAGAATGCTTCCGTTTGCCTTTTATATGAACTTCCTCGAT (double strand) [CENP-A NCP, Cy5-H2B, 147 bp DNA]”: the Kd came to 655 nM in series [1] and 267 nM in series [2].
